The values below come from patent US20230295345A1 (published 2023).

Sequences and labels used below:
T1: TMPRSS6 expressed in transfected HepG2 cells (HAMP-luciferase reporter assay) (UniProt Q8IU80 1-811, limits assumed)
T1 sequence (looked up): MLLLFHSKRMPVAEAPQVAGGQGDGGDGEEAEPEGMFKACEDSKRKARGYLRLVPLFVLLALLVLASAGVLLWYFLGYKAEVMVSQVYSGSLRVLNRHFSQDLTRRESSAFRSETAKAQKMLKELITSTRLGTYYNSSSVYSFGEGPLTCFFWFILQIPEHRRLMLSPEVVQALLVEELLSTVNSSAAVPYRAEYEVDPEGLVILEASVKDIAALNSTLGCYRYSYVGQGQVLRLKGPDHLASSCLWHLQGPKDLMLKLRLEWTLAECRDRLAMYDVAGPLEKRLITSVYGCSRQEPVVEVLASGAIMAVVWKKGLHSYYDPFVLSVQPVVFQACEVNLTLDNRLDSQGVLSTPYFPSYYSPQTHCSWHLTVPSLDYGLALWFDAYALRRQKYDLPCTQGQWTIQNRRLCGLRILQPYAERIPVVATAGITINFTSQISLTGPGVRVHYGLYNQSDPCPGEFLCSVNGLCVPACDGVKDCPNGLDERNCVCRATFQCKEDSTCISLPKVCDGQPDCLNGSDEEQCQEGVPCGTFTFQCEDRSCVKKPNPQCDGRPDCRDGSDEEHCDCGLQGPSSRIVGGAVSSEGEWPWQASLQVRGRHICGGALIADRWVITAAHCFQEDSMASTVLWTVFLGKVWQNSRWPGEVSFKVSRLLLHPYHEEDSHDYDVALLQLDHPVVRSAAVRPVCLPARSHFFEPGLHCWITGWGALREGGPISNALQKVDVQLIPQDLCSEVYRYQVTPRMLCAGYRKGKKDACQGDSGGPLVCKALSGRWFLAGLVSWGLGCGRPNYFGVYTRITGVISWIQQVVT

T2: matriptase-3 (TMPRSS7) over-expressed in HEK293T cells (human, UniProt Q7RTY8 1-843)
T2 sequence: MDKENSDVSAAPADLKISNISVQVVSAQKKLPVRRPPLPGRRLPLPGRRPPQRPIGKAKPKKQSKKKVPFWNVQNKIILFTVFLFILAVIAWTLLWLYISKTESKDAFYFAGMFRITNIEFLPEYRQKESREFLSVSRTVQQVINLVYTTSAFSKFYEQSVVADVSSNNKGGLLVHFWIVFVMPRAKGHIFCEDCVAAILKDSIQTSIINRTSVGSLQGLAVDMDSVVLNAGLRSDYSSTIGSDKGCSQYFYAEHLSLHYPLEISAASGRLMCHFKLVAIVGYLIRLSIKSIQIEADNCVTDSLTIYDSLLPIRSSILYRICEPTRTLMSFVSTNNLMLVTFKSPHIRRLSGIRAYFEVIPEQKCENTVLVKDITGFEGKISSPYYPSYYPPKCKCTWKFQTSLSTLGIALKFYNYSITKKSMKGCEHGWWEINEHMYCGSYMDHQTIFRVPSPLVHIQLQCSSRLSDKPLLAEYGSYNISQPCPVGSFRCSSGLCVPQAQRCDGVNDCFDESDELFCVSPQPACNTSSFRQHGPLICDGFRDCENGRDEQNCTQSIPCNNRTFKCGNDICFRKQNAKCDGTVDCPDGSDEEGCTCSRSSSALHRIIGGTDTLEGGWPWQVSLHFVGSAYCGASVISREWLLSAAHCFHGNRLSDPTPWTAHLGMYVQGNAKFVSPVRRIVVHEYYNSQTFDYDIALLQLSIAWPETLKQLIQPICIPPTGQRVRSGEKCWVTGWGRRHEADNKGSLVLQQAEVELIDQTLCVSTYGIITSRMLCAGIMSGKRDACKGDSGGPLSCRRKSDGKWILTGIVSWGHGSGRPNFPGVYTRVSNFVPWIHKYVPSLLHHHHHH

B1: hzMWTx-002Var anti-TMPRSS6 antibody (antibody, human IgG1, kappa, N297A, V domains shown)
VH: EVQLVQSGAEVKKPGASVKVSCKASGFNIKDYYIHWVRQATGQGLEWMGRIDPEDAESEYAPKFQGRVTITADTSTDTAYMELSSLRSEDTAVYYCTRGDSMMVTYFDYWGQGTLVTVSS
VL: DIQMTQSPSSLSASVGDRVTITCKASQDVSTAVAWYQQKPGKAPKLLIYWAFTRHTGVPSRFSGSGSGTDYALTISSLQPEDFATYYCQQHYRSPWTFGGGTKVEIKR
notes: Humanized variant of MWTx-002, human IgG1/kappa
B2: MWTx-001 anti-TMPRSS6 antibody (antibody, mouse IgG2a, kappa, V domains shown)
VH: QVQLQQPGAELAKPGASVKMSCKASGYTFTSYWITWVKQRPGQDLEWIGNIYPGSGSTYYNEKFKSKATLTVDTSSRTAYMQLSSLTSADSAVYYCAPYDSDYAMDYWGQGTSVTVSS
VL: DIKMTQSPSSMYASLGERVTITCKASQDINNYLSWFQQKPGKSPKTLIYRANRLVDGVPSRVSGSGSGQDYSLTISSLEYEDVGIYFCLQYDEFPLTFGAGTKLELKR
notes: Mouse monoclonal antibody from a hybridoma (ATCC PTA-126759)
B3: MWTx-003 anti-TMPRSS6 antibody (antibody, mouse IgG2b, kappa, V domains shown)
VH: EVQLQQSGAELVKPGASVKLSCTASGFNIEDYYIHWVKERTEQGLEWIGRIDPEDGETTYAPQFQGKATIIPDTSSNTAYMQLSSLTSEDAAVYYCARSIYLDPMDYWGQGTSVTVSS
VL: DIVMTQSHKFMSTSVGDRVSITCKASQDVTTAVAWYQQKPGQSPKILIYWATTRHTGVPDRFTGSISGTTYILTISSVQAEDLALYYCQQHYSTPYTFGGGTKLEIKR
notes: Mouse monoclonal antibody from a hybridoma (ATCC PTA-126761); also called r4K12B (recombinantly expressed version, same HC and LC)
B4: hzMWTx-003Var anti-TMPRSS6 antibody (antibody, human IgG1, kappa, L234A L235A, V domains shown)
VH: QVQLVQSGAEVKKPGASVKVSCKASGFNIEDYYMHWVRQAPGQRLEWMGRIDPEDAETTYSPKFQGRVTIIPDTSANTAYMELSSLRSEDTAVYYCARSIYLDPMDYWGQGTLVTVSS
VL: DIQMTQSPKSLSASVGDRVTITCRASQDVTTALAWYQQKPGQSPKLLIYWATTRHSGVPSRFSGSGSGTDFTLTISSLQPEDFATYYCQQHYSTPYTFGQGTKLEIKR
notes: Humanized variant of MWTx-003, human IgG1/kappa
B5: hzMWTx-001Var anti-TMPRSS6 antibody (antibody, human IgG1, kappa, N297A, V domains shown)
VH: EVQLVQSGAEVKKPGASVKVSCKASGYTFTSYWITWVRQAPGQRLEWIGNIYPGSGSTYYNEKFKSKATITRDTSSRTAYMELSSLRSEDTAVYYCAPYDADYAMDYWGQGTLVTVSS
VL: DIQMTQSPSSLSASVGDRVTITCKASQDISNYLSWFQQKPGKAPKLLIYRANRLVEGVPSRFSGSGSGTDFTLTISSLQPEDFATYFCLQYDEFPLTFGGGTKVEIKR
notes: Humanized variant of MWTx-001, human IgG1/kappa
B6: MWTx-002 anti-TMPRSS6 antibody (antibody, mouse IgG2b, kappa, V domains shown)
VH: EVQLQQSGAELVKPGASVKLSCTASGFNIKDYYIHWVKERTEQGLEWFGRIDPEDGESEYAPKFQGKATLTADTSSNTAYLQLSSLTSEDTAVYYCTRGDSMMVTYFDYWGQGTTLTVSS
VL: DIVMTQSHKFMSTSVGDRVSITCKASQDVSTAVAWYQQKPGQSPKLLIYWAFTRHTGVPDRFTSTGSGTDYALTISSVQAEDLALYYCQQHYRSPWTFGGGTKLEIKR
notes: Mouse monoclonal antibody from a hybridoma (ATCC PTA-126760)

In the first assay the target is T1, TMPRSS6 expressed in transfected HepG2 …. The assay can be described thus: cell-based or functional assay.
B1: the “EC50, HAMP promoter activity (HAMP-luciferase reporter assay in HepG2 cells)” value (from here on “EC50, HAMP promoter activity”) is 0.3 µg/mL.

Consider B2, for which the “EC50, HAMP promoter activity” value turned out to be 3 µg/mL.

Turning to B3, the “EC50, HAMP promoter activity” value amounted to 2 µg/mL.

With B4, the “EC50, HAMP promoter activity” value was determined as 0.3 µg/mL.

Turning to B5, the “EC50, HAMP promoter activity” value came out at 0.8 µg/mL.

Consider B6, for which the “EC50, HAMP promoter activity” value came out at 1 µg/mL.

The target of another assay is T2, matriptase-3 (TMPRSS7) over-expressed …. Description: FACS on permeabilized HEK293T cells over-expressing TMPRSS7. The text has this: To determine if anti-TMPRSS6 antibodies bind to homologous matriptases, HEK293T cells over-expressing matriptase (ST14) (SEQ ID NO: 100) (FIGS. 5B, 5E, 5H, 5K, 5N, 5Q), and HEK293T cells over-expressing matriptase-3 (TMPRSS7) (SEQ ID NO: 101) (FIGS. 5C, 5F, 5I, 5L, 5O, 5R) were collected (generated in house). HEK293T cells stably expressing human TMPRSS6 (matriptase-2) (SEQ ID NO:97) (generated by LakePharma Inc as described above, FIGS. 5A, 5D, 5G, 5J, 5M, 5P) were used as a positive control and HEK293T cells (FIGS. 5A-5R) were used as a negative control (as described above). Cells were blocked and permeabilized with dPBS + 3% BSA + 0.1% Tween-20 before incubation with various anti-TMPRSS6 antibodies diluted in dPBS + 3% BSA + 0.1% Tween-20. Cells were incubated with anti-TMPRSS6 antibodies and their humanized variants at a concentration of roughly 1 µg/ml for 1 hr. After incubation, cells were washed with dPBS and incubated with goat anti-mouse IgG conjugated with AlexaFluor-488 (Invitrogen, FIGS. 5A-5I) or goat anti-human IgG conjugated with Allophycocyanin (APC) (Jackson Immuno Research, FIGS. 5J-5R) as a 2° antibody. At last, cells were washed with dPBS and re-suspended with dPBS + 1 mM EDTA, and then subjected to FACS analysis using a NOVOCYTE® Flow Cytometer. Bound antibody was determined by excitation at 488 nm and measurement of emission (FITC-A) at 530 nm (FIGS. 5A-5I) or by excitation at 640 nm and measurement of emission (APC-A) at 675 nm (FIGS. 5J-5R). Results for these assays are shown in histogram plots in FIGS. 5A-5R.
For the molecule B1, the binding result is on record as “no binding (tested: roughly 1 µg/ml)”.

Consider B2, for which the binding result is “no binding (tested: roughly 1 µg/ml)”.

For B3, the binding result is recorded as “no binding (tested: roughly 1 µg/ml)”.

As for B4, the binding result is reported as “no binding (tested: roughly 1 µg/ml)”.

Take B5: the binding result is given as “no binding (tested: roughly 1 µg/ml)”.

On to B6, for which the binding result was “no binding (tested: roughly 1 µg/ml)”.
